Test results taken from patent US20240123029A1.

Biological target: Recombinant human mannose binding lectin (MBL) (human) (UniProt P11226)
Sequence (P11226 21-248 limits assumed): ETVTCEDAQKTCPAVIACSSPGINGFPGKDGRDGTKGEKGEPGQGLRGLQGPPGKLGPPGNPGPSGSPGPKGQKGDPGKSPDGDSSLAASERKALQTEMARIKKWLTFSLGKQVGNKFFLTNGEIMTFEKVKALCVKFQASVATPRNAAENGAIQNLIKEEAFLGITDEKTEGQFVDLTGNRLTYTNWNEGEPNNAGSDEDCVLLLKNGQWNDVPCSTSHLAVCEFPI

Biotinylated SARS-CoV-2 S protein, His Tag, active trimer (from UniProt P0DTC2 16-1213) (other; other documents disagree on this pair)
EC50 (read off the curve): 3 nM
